{
  "source": "paper PMC8596125",
  "about": "“Self‐Stabilized Supramolecular Assemblies Constructed from PEGylated Dendritic Peptide Conjugate for Augmenting Tumor Retention and Therapy” (Advanced Science, 2021)",
  "key": {"[1]": {"experiment": "Size, PDI and zeta potential by DLS", "format": "physicochemical", "procedure": "(§1) 1.3.2 Size, zeta potential and morphology\n(§2) The size, polydispersity index (PDI), correlation coefficient and zeta potential of self-stabilized supramolecular assemblies (PDPP) were measured by DLS, and the morphology and particle size of PDPP were observed under a TEM. […]\n(§3) 1.3.3 Colloidal stability\n(§4) The colloidal stability of PDPP was assessed by monitoring the change in the size and PDI as a function of time. PDPP were added in H2O, PBS, H2O containing 10% of fetal bovine serum (FBS), and PBS containing 10% of FBS respectively, and these mixtures were incubated at 37℃ in a humidified chamber, and their sizes and PDI were monitored by DLS at a pre-determined time. […]"}, "[2]": {"experiment": "Colloidal stability (size and PDI over time by DLS)", "format": "physicochemical", "conditions": "H2O, PBS, H2O or PBS with 10% FBS, 37 °C, 7 d, n = 3", "procedure": "as §1, §2, §3, §4"}, "[3]": {"experiment": "Disassembly behavior in Triton X-100, NaCl or urea (DLS)", "format": "physicochemical", "conditions": "1 h incubation, n = 6", "procedure": "as §1\n(§5) The size, polydispersity index (PDI), correlation coefficient and zeta potential of self-stabilized supramolecular assemblies (PDPP) were measured by DLS, and the morphology and particle size of PDPP were observed under a TEM. Briefly, PDPP was dissolved in Milli-Q water and ultrasonically dispersed to prepare PDPP solutions at different concentrations (0.1, 0.5, 1.0, 5.0, and 10.0 mg mL-1) for DLS, TEM measurements. Furthermore, the effects of hydrophobic force, ionic interaction, and hydrogen bonding on the supramolecular self-assembly of PDPP were assessed by adding Triton X-100, NaCl, and urea to the PDPP solution with the final concentrations of 1, 5, 10, 20, 50 and 100 mM for Triton X-100, NaCl, and urea. After incubation for 1 h, the size changes of PDPP were recorded by DLS. […]"}, "[4]": {"experiment": "Critical assembly concentration (pyrene fluorescence probe)", "format": "physicochemical", "conditions": "in H2O, pyrene as fluorescence probe", "procedure": "Ppa was dissolved in anhydrous DMSO and then diluted in different concentrations.\nThe absorbance values of PDPP at 667 nm were obtained and the drug loading was calculated according to the standard absorption curve. Drug loading content (DLC) = (weight of Ppa in PDPP / weight of PDPP) × 100%.\nas §1\nas §5, with “Briefly, PDPP was dissolved in Milli-Q water and ultrasonically dispersed to prepare PDPP solutions at different concentrations (0.1, 0.5, 1.0, 5.0, and 10.0 mg mL-1) for DLS, TEM measurements.” left out\nas §4\nThe CAC of PDPP was determined by using pyrene as a fluorescence probe. […]\nFluorescence emission spectrum […]"}, "[5]": {"tested_on": "mouse red blood cells (RBCs)", "experiment": "Hemolysis of erythrocytes", "format": "cell-based", "conditions": "up to 10.0 mg mL-1, 37 °C, 12 h, absorbance 540 nm", "procedure": "with 6×105 A549 cells subcutaneously on the right flank for the A549 model. About 2 weeks after implantation, mice with a tumor volume size of 100 mm3 were used for biodistribution and imaging, and mice with a tumor volume size of 50 mm3 for […]\n1.3.11 Blood compatibility\nErythrocytes morphologies and aggregation\nErythrocytes were collected from female BALB/c mice, and erythrocytes suspension was prepared by centrifuging the citrated whole blood at 1000 g for 5 min at room temperature. After the plasma and buffy coat layers were removed, the erythrocytes were washed with PBS 3 times. […]\nThe dried erythrocytes samples were coated with gold and analyzed under a SEM. […]\nErythrocytes were diluted with PBS to prepare the erythrocyte suspension. […] The absorbance of the supernatant was measured with a Microplate Reader at 540 nm, and hemolysis rate was determined using the following […]\nWhere AS is the absorbance of the sample, A100 is the absorbance of lysed erythrocytes in H2O (a positive control), and A0 is the absorbance of 0% hemolysis in PBS (a negative control). […]\nThe backs of healthy BALB/c mice were depilated 3 days before treatment to ensure that all injures had recovered. […] The degree of skin response was examined and scored according to Table S5, and Paraffin sections of the skin were stained with hematoxylin and eosin (H&E) according to the manufacturer's instructions.[3] […]"}, "4T1 cells": {"tested_on": "4T1 cells", "experiment": "Cytotoxicity, CCK-8 assay, 4T1", "format": "cell-based, mouse", "conditions": "no light, CCK-8, n = 3", "procedure": "The CCK-8 assay was used to examine the photodynamic therapeutic effect of SSAs on cell viability against three cell lines. 4×103 4T1 cells per well were seeded in a 96-well plate, and then incubated overnight. The cells were treated with different concentrations of Ppa and SSAs at an equivalent Ppa dose. After 24 h incubation, the medium was replaced with fresh one, and the wells were irradiated using a 660 nm laser with 1 J cm−2. After 24 h, the spent media was replaced and the cell viability was assessed using the CCK-8 reagent. The absorbance at […] of each well was recorded on a microplate reader. Untreated cells were served as a control. Results were presented as the average cell viability by following the manufacturer’s instruction. IC50 values were calculated by using nonlinear regression in software Graphpad Prism7. The cytotoxicity of SSAs and Ppa with or without laser against A549 cell line was also measured through the same procedure.\n(§6) The cytotoxicity of SSAs and PDP without laser irradiation was also measured by […]"}, "L02 cells": {"tested_on": "L02 cells", "experiment": "Cytotoxicity, CCK-8 assay, L02", "format": "cell-based, human", "conditions": "L02 normal cells, 24 h (PDP 24 h and 48 h), CCK-8, n = 3", "procedure": "Academy of Science Cell Bank for Type Culture Collection (Shanghai, China) and cultured in RPMI-1640 medium, supplemented with 10% fetal bovine serum (FBS), penicillin G (100 U mL-1) and streptomycin (100 μg mL-1), and incubated in 5% CO2 […]\n1.3.7 In vitro ROS generation\nThe intracellular ROS generation was analyzed by using a peroxide-sensitive fluorescent probe, 2′, 7′- dichlorofluorescin-diacetate (DCFH-DA, Beyotime, Beijing, China). According to the manufacturer’s instruction, cells (1×10^6 cells per well) were treated SSAs and Ppa at the same concentration of 1 μg Ppa mL-1. […] 20,000 events were collected and Flowjo software was used for quantifying the intensity of fluorescence.\nThe CCK-8 assay was used to examine the photodynamic therapeutic effect of SSAs on cell viability against three cell lines. […] After 24 h, the spent media was replaced and the cell viability was assessed using the CCK-8 reagent. The absorbance at […] of each well was recorded on a microplate reader. […] IC50 values were calculated by using nonlinear regression in software Graphpad Prism7. The cytotoxicity of SSAs and Ppa with or without laser against A549 cell line was also measured through the same procedure.\nas §6"}},
  "data": [
    {"substance": "PEG‐dendritic peptide‐pyropheophorbide a [PDPP]", "values": [
      {"measurement": "PDI", "setting": "[1]; in H2O", "value": "0.152±0.036"},
      {"measurement": "Size", "setting": "[1]; in H2O", "value": "104.68 ± 15.10", "unit": "nm·days"},
      {"measurement": "Zeta Potential", "setting": "[1]; in H2O", "value": "-25.49±0.58", "unit": "mV"},
      {"measurement": "PDI", "setting": "[1]; in H2O+10%FBS", "value": "0.167±0.012"},
      {"measurement": "Size", "setting": "[1]; in H2O+10%FBS", "value": "96.13 ± 9.72", "unit": "nm·days"},
      {"measurement": "Zeta Potential", "setting": "[1]; in H2O+10%FBS", "value": "-13.57±0.85", "unit": "mV"},
      {"measurement": "PDI", "setting": "[1]; in PBS", "value": "0.137±0.036"},
      {"measurement": "Size", "setting": "[1]; in PBS", "value": "100.38 ± 19.12", "unit": "nm·days"},
      {"measurement": "Zeta Potential", "setting": "[1]; in PBS", "value": "-5.28±7.86", "unit": "mV"},
      {"measurement": "PDI", "setting": "[1]; in PBS+10%FBS", "value": "0.154±0.013"},
      {"measurement": "Size", "setting": "[1]; in PBS+10%FBS", "value": "102.58 ± 8.94", "unit": "nm·days"},
      {"measurement": "Zeta Potential", "setting": "[1]; in PBS+10%FBS", "value": "-7.34±0.94", "unit": "mV"},
      {"measurement": "Colloidal stability: size and PDI over time", "setting": "[2]", "value": "remain unchanged for 7 d"},
      {"measurement": "Change in size and PDI after dispersion in NaCl or urea solution", "setting": "[3]; 1-100 mM NaCl or urea", "value": "no significant change"},
      {"measurement": "Disassembly behavior in Triton solution", "setting": "[3]; Triton X-100 at a high concentration (1-100 mM tested)", "value": "disassembly behaviors of PDPP would have occurred"},
      {"measurement": "Critical assembly concentration (CAC)", "setting": "[4]", "value": 4.85, "unit": "µg/mL"}
    ]},
    {"substance": "PEG‐dendritic peptide [PDP]", "values": [
      {"measurement": "Hemolysis", "setting": "[5]", "value": "no hemolysis is observed and detected"},
      {"measurement": "Cytotoxicity without laser irradiation", "setting": "4T1 cells", "value": "no significant cytotoxicity"},
      {"measurement": "Cytotoxicity without laser irradiation", "setting": "L02 cells", "value": "no significant cytotoxicity"}
    ]}
  ]
}
